Molecular target: T1, human Aβ1-42 oligomers (human, UniProt P05067 672-713, fluorescently labeled in the TIRF imaging (HiLyte Fluor 647-labeled peptide bought, paragraph 100; 'AlexFlour647-conjugated' in paragraph 102); position not stated)
T1 construct: domain: Aβ1-42; Preformed oligomers; only the Aβ1-42 peptide was used; also called labeled Aβ1-42 oligomers; HiLyte Fluor 647-labeled Aβ1-42
Experiment: TIRF single molecule imaging with photobleaching of aggregates formed in Httl4A2.6 lysates (data not shown)
Procedure: Httl4A2.6 cells were treated with 0.5 μM of Aβ1-40, Aβ1-42, alpha-synuclein, and A53T alpha-synuclein, Alzheimer's disease (AD), and Parkinson's disease—associated oligomers, in the same manner as polyQ seeds. No significant enhancement of intracellular mHttex 1-GFP aggregates was detected (data not shown). Confirming results were obtained from filter retardation-GFP immunoblotting following cell-free aggregation assays; no notable changes in mHttex1 aggregation were found in the cell lysates with up to 5 μM of Aβ1-40, Aβ1-42, alpha-synuclein, and A53T alpha-synuclein oligomeric seeds (data not shown). These observations were further corroborated by the total internal reflection microscopy (TIRF) single molecule imaging results based on photobleaching of mHttex1-GFP aggregates formed in Httl4A2.6 lysates seeded with either AlexFlour647-conjugated polyQ or Aβ1-42 oligomers (data not shown). In contrast to the polyQ oligomers, which were mostly linked with mHttex1-GFP aggregates from photobleaching imaging, few labeled Aβ1-42 oligomers overlapped with GFP fluorescence from the mHttex1-GFP aggregates.

T1 sequence (P05067 672-713 limits assumed): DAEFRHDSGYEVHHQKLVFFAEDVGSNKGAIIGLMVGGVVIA

- binding result: no binding
B1: mHttex1-GFP (truncated expanded repeat Httn exon 1 protein fused at the C-terminus to EGFP) (other)
chain: MATLEKLMKAFESLKSFQQQQQQQQQQQQQQQQQQQQQQQQQQQQQQQQQQQQQQQQQQQQQQQQQQQQQQQQQQQQQQQQQQQQQQQQQQQQQQQQQQQQQQQQQQQQQQQQQQQQQQ
notes: Expressed in Httl4A2.6 inducible PC12 cells after Ponasterone A induction; tested inside cells or in cell lysate supernatants; No linker between Httn part and EGFP is described; also called N17-103Q-EGFP; GFP-tagged mHtt exon 1 protein; not shown: enhanced green fluorescent protein (EGFP), fused at the C-terminus; EGFP is an eng

From patent US20160178645A1 (University of California, published 2016)
